Legend:
LPAR1 [1] = target: T1, LPAR1 (Homo sapiens, UniProt Q92633); assay: Function of humanised and affinity matured variants, method not stated; design: expressed in transfected cells; details: stated in words
[2] = tested on: renal fibrosis after UUO surgery; assay: Unilateral ureteral obstruction (UUO) efficacy model of renal fibrosis; assay type: in vivo, Hartley guinea pigs; details: Study 1; BMS-986020 30 mg/kg oral twice daily; antibody 20 mg/kg i.p.; Day 10
Description: Unilateral ureteral obstruction (UUO) is a well-characterized disease model for renal fibrosis. The UUO model encompasses key pathophysiological features of chronic kidney disease; tubular necrosis and inflammatory cell infiltration within a relatively short period.
Two unilateral ureteral obstruction (UUO) model efficacy studies were carried out in six-week old female Hartley guinea pigs. On Day 0, UUO surgery was performed. BMS-986020 was administered orally at a dose level of 30 mg/kg in a volume of 5 mL/kg twice daily at from Day −1 to 9. Isotype control and anti-LPAR1 antibody was intraperitoneally administered at a dose level of 6 mg/kg (low) or 20 mg/kg (high) in a volume of 10 mL/kg at Day −1, Day 0, Day 3 and Day 6. The viability, clinical signs, behaviour and individual body weight was monitored daily.
The animals were sacrificed at Day 10. The ligated left kidney and right kidney weight were measured at sacrifice.
Hydroxyproline is an amino acid, making up around 14% of collagen and acts as an important indicator of the severity of fibrosis. To quantify kidney hydroxyproline content, frozen posterior right section of left kidney samples were processed by an alkaline-acid hydrolysis method. AC buffer (2.2M acetic acid/0.48M citric acid) was added to the samples, followed by centrifugation to collect the supernatant. A standard curve of hydroxyproline was constructed with serial dilutions of trans-4-hydroxy-L-proline (Sigma-Aldrich, USA) starting at 16 μg/mL. The prepared samples and standards were mixed with chloramine T solution (Nacalai Tesque Inc., Japan) and incubated for 25 minutes at room temperature. The samples were then mixed with Ehrlich's solution and heated at 65° C. for 20 minutes to develop the colour. After samples were cooled on ice and centrifuged to remove precipitates, the optical density of each supernatant was measured at 560 nm. The concentrations of hydroxyproline were calculated from the hydroxyproline standard curve. Protein concentrations of kidney samples were determined using a BCA protein assay kit (Thermo Fisher Scientific, USA) and used to normalize the calculated hydroxyproline values. Kidney hydroxyproline contents were expressed as μg per mg protein.
The left kidney was fixed in Bouin's solution and embedded in paraffin. For PAS staining, sections were cut from paraffin blocks and stained with Schiff's reagent (FUJIFILM Wako pure chemical corporation, Japan) according to the manufacturer's instructions. To visualize collagen deposition, kidney sections were stained using picro-Sirius red solution (FUJIFILM Wako pure chemical corporation). For quantification of interstitial and medulla fibrosis area, bright field images in the corticomedullary region were captured using a digital camera (DFC295) at 200-fold magnification, and the positive areas in 5 fields/section were measured using ImageJ software (National Institute of Health, USA).

Irrelevant GPCR = assay: Transient-transfection CIFAT, irrelevant GPCR control (fixed and live cells); assay type: binding; details: cells expressing irrelevant GPCR
Description: (§1) Anti-LPAR1 antibodies of the invention were tested alongside commercially available anti-LPAR1 antibodies in the transient-transfection CIFAT assay for live cells (method 1.11) and in the transient-transfection CIFAT assay for fixed cells (method 1.11).
The results are shown in FIGS. 11 and 12, wherein the scale bar represents 100 μm.

LPAR1 [3] = target: T1, LPAR1; assay: LPAR1 binding affinity during discovery and affinity maturation, method not stated; design: expressed in transfected cells; details: stated in words
LPAR1 [4] = target: T1, LPAR1; assay: Transient-transfection CIFAT, live cells; assay type: binding; design: HA; expressed in transfected cells; host or cells: CHO-K1 (transient, PEI); details: 5 μg/mL or 20 μg/mL
Description: CHO-K1 cells are seeded in multi well plates at 20,000 cells per 200 μL full growth medium and incubated for 24 hours at 37° C. In a sterile tube, 0.0309 uL/well PEI is diluted into 10 uL/well transfection medium (DMEM supplemented with 2 mM L-glutamine and Penicillin-Streptomycin). The diluted PEI is added to 100 ng/well DNA, before mixing immediately and incubating the mixture for 10 minutes at room temperature. 200 μL/well full growth medium is added to the PEI-DNA mixture, then medium in wells is taken off and 200 ul full growth medium/PEI/DNA mixture is added in the wells of the adherent cell plate. The plate is incubated for 24 hours at 37° C. The medium is discarded and replaced with 200 μL full growth medium. The plate is incubated for 24 hours at 37° C. Medium is removed from the wells and the cells incubated with primary antibody at varying concentrations for 75 minutes at 37° C. After washing and cell fixation with 4% PFA, the binding of the antibodies is detected using a goat anti-human detection antibody, incubated for 1 hour at room temperature. Fluorescence at 488 nm is measured.
CHO-K1 cells were seeded in clear 96-well plates at 20,000 cells per 200 μL full growth medium and incubated for 24 hours at 37° C. The following day, in a sterile tube, 0.0309 uL/well PEI (Generon, MW 160,000) was diluted into 10 uL/well transfection medium (DMEM supplemented with 2 mM L-glutamine and Penicillin-Streptomycin). The diluted PEI was added to 100 ng/well DNA encoding the target protein (human LPAR1 (SEQ ID NO: 62) unless otherwise stated), before vortexing immediately and incubating the mixture for 10 minutes at room temperature. 200 μL/well full growth medium was added to the PEI-DNA mixture, then medium in wells was taken off and 200 ul full growth medium/PEI/DNA mixture was added in the wells of the adherent cell plate. The plate was incubated for 24 hours at 37° C. The next day, the medium was discarded and replaced with 200 μL full growth medium. The plate was incubated for 24 hours at 37° C. The following day, medium was removed from the wells and the cells incubated with primary antibody at varying concentrations for 75 minutes at 37° C. After washing and cell fixation with 4% PFA, the binding of the antibodies was detected using a goat anti-human Alexa Fluor 488 detection antibody (Invitrogen), incubated for 1 hour at room temperature. Fluorescence at 488 nm was measured using a BMG LABTECH ClarioStar plate reader and microscopy images were taken at 10× magnification.
as §1

LPAR1 [5] = target: T1, LPAR1; assay: Transient-transfection CIFAT, fixed/permeabilised cells; assay type: binding; design: HA; expressed in transfected cells; host or cells: CHO-K1 (transient, PEI); details: 5 μg/mL

T1 sequence (Q92633 whole entry): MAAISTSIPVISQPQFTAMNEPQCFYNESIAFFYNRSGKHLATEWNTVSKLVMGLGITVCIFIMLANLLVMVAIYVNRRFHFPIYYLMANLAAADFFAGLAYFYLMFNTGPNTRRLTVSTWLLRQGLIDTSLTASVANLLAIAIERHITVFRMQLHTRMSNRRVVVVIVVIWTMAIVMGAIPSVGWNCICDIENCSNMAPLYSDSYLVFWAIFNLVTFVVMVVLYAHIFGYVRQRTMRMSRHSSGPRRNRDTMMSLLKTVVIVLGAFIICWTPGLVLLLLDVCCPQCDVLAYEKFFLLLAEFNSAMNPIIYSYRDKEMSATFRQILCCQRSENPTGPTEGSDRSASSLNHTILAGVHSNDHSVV

B1: Antibody 7: Humanised variant of Antibody 1; VH SEQ ID NO: 33, VL SEQ ID NO: 34 (antibody, V domains shown)
VH: QVQLVQSGSELKKPGASVKVSCKASGYTFTSSGISWVRQAPGQGLEWMGEILPRSGYTNYNEGFTGRFVFSADKSVSTAYLQISSLKAEDTAVYYCARDFGSSRYAMDYWGQGTTVTVSS
VL: SIQMTQSPSSLSASVGDRVTITCQASQSVRYNVAWYQQKPGKAPKLLIYYASNRYTGVPSRFSGSGSGTDFTFTISSLQPEDIATYFCQQHYNSPLTFGGGTKLEIK
function (LPAR1 [1]): best in terms of expression, stability and function

B2: Antibody 13: LCDR2 mutation T56D; VH SEQ ID NO: 37, VL SEQ ID NO: 38 (antibody, V domains shown)
VH: QVQLVQSGSELKKPGASVKVSCKASGYTFTSSGISWVRQAPGQGLEWMGEILPRSGYTNYNQGFTGRFVFSADKSVSTAYLQISSLKAEDTAVYYCARDKGPSRYTMDYWGQGTTVTVSS
VL: SIQMTQSPSSLSASVGDRVTITCQASQSVRYNVAWYQQKPGKAPKLLIYYASNRYDGVPSRFSGSGSGTDFTFTISSLQPEDIATYFCQHHYSSPLTFGGGTKLEIK
kidney hydroxyproline [2]: No observable difference | Irrelevant GPCR cell staining (Irrelevant GPCR): Irrelevant GPCR-No significant cell staining | binding affinity for LPAR1 (LPAR1 [3]): minimal effect on affinity | LPAR1 live cell staining (LPAR1 [4]): LPAR1-Significant fixed and live cell staining | LPAR1 fixed cell staining (LPAR1 [5]): LPAR1-Significant fixed and live cell staining

B3: Antibody 9: Antibody 8 with HCDR2 mutation E61Q; VH SEQ ID NO: 35, VL SEQ ID NO: 39 (antibody, V domains shown)
VH: QVQLVQSGSELKKPGASVKVSCKASGYTFTSSGISWVRQAPGQGLEWMGEILPRSGYTNYNQGFTGRFVFSADKSVSTAYLQISSLKAEDTAVYYCARDFGSSRYAMDYWGQGTTVTVSS
VL: SIQMTQSPSSLSASVGDRVTITCQASQSVRYNVAWYQQKPGKAPKLLIYYASNRYTGVPSRFSGSGSGTDFTFTISSLQPEDIATYFCQHHYSSPLTFGGGTKLEIK
function (LPAR1 [1]): significantly enhanced the function

B4: Antibody 2: Murine germline sequence Antibody 1 was derived from; VH SEQ ID NO: 25, VL SEQ ID NO: 26 (antibody, V domains shown)
VH: QVQLQQSGAELARPGASVKLSCKASGYTFTSYGISWVKQRTGQGLEWIGEIYPRSGNTYYNEKFKGKATLTADKSSSTAYMELRSLTSEDSAVYFCARDYGSSRYAMDYWGQGTSVTVSS
VL: SIVMTQTPKFLPVSAGDRVTMTCKASQSVGNNVAWYQQKPGQSPKLLIYYASNRYTGVPDRFTGSGSGTDFTFTISSVQVEDLAVYFCQQHYSSPLTFGAGTKLELK
binding affinity for LPAR1 (LPAR1 [3]): extremely low binding affinity

B5: Antibody 6: Antibody 5 with LCDR3 reversion N93S; VH SEQ ID NO: 27, VL SEQ ID NO: 32 (antibody, V domains shown)
VH: QVQLQQSGAELARPGASVKLSCKASGYTFTSSGISWVKQRTGQGLEWIGEILPRSGYTNYNEKFKGKATLTADKSSSTAYMELRSLTSEDSAVYFCARDFGSSRYAMDYWGQGTSVTVSS
VL: SIVMTQTPKFLPVSAGDRVTMTCKASQSVRYNVAWYQQKPGQSPKLLIYYASNRYTGVPDRFTGSGSGTDFTFTISSVQVEDLAVYFCQHHYSSPLTFGAGTKLELK
binding affinity for LPAR1 (LPAR1 [3]): large affinity gain

B6: Antibody 4: Hybridoma related to Antibody 1 with LCDR3 mutation Q90H; VH SEQ ID NO: 29, VL SEQ ID NO: 30 (antibody, V domains shown)
VH: QVQLQQSGAELARPGASVKLSCKASGYTFTSSGISWVKQRTGQGLEWIGEIYPRSGYTNYNEKFKGKASLTADKSSRTAYMELRSLTSEDSAVYFCARDYDNSRYALDYWGQGTSVTVSS
VL: SIVMTQTPKFLPVSAGDRVTMTCKASQSVGYNVAWYQQKTGQSPKLLIYYASNRYTGVPDRFTGSGSGTDFTFTISSVQVEDLAVYFCQHHYSSPLTFGAGTKLELK
Irrelevant GPCR cell staining (Irrelevant GPCR): Irrelevant GPCR-No significant cell staining | LPAR1 live cell staining (LPAR1 [4]): LPAR1-Significant fixed and live cell staining | LPAR1 fixed cell staining (LPAR1 [5]): LPAR1-Significant fixed and live cell staining

B7: Antibody 5: Antibody 3 with VL mutation Q90H; VH SEQ ID NO: 27, VL SEQ ID NO: 31 (antibody, V domains shown)
VH: QVQLQQSGAELARPGASVKLSCKASGYTFTSSGISWVKQRTGQGLEWIGEILPRSGYTNYNEKFKGKATLTADKSSSTAYMELRSLTSEDSAVYFCARDFGSSRYAMDYWGQGTSVTVSS
VL: SIVMTQTPKFLPVSAGDRVTMTCKASQSVRYNVAWYQQKPGQSPKLLIYYASNRYTGVPDRFTGSGSGTDFTFTISSVQVEDLAVYFCQHHYNSPLTFGAGTKLELK
binding affinity for LPAR1 (LPAR1 [3]): improved affinity

From patent publication US12599645B2, “Antibodies which bind to lysophosphatidic acid receptor 1 (LPAR1)” (DJS ANTIBODIES LTD, priority 2021, dated 2026)
